The record followed here is PMC4778049, “A Helitron transposon reconstructed from bats reveals a novel mechanism of genome shuffling in eukaryotes” (Nature Communications, 2016).

In one data set the target is T1, Helraiser transposase (Myotis lucifugus, UniProt Z9MI32ZQP9, K1068Q).
T1 construct: full-length synthesized consensus transposase, 1,496 aa (N-terminal domain, Rep HUH nuclease, SF1 helicase); baculovirus expression, purified
T1 sequence (Z9MI32ZQP9 1-1496 K1068Q): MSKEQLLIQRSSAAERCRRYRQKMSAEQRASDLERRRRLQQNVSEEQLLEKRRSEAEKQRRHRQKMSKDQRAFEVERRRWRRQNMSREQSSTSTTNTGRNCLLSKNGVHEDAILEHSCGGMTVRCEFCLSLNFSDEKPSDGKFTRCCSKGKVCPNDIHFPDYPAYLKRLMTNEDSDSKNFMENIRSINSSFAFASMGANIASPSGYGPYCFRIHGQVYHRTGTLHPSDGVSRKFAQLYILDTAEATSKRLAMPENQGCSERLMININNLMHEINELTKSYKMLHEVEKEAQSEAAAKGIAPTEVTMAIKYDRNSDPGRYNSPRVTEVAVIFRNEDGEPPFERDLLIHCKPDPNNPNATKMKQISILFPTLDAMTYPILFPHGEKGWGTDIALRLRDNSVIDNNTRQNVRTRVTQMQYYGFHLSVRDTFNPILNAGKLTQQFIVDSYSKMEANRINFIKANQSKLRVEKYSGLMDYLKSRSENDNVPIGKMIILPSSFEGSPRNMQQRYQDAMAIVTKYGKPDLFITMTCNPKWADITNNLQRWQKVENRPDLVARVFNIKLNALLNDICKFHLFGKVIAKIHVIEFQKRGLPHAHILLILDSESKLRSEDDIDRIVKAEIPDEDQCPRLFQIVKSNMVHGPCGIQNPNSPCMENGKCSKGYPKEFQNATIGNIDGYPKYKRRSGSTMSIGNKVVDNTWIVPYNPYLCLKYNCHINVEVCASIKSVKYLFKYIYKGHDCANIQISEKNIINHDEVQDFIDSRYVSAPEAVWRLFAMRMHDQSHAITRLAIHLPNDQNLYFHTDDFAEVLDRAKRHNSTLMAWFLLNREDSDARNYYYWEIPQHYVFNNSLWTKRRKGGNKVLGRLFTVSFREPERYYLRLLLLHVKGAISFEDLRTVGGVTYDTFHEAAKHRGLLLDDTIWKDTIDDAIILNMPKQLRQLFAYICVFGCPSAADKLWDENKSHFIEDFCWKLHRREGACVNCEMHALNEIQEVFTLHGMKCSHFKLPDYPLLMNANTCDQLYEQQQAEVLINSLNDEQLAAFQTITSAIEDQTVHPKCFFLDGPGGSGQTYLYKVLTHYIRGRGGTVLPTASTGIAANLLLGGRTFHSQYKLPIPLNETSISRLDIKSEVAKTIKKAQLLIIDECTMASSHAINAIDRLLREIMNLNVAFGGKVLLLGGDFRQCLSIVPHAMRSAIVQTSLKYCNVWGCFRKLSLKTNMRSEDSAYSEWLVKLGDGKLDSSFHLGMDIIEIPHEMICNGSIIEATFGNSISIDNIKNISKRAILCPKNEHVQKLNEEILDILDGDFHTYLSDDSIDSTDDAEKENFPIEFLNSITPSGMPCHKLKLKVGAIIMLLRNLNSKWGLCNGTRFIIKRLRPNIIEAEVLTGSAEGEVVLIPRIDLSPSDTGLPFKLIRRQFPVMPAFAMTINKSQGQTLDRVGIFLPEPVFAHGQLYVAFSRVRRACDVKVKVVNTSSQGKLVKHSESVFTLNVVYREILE
Put plainly: colorimetric ATPase assay (pyrophosphate release as printed). Type of data set: biochemical. Conditions: Walker A mutant; ATP hydrolysis abolished.

Substrate in data set [1]: Nc1ncnc2c1ncn2[C@@H]1O[C@H](COP(=O)(O)OP(=O)(O)OP(=O)(O)O)[C@@H](O)[C@H]1O
The data set is described as above. Conditions: DNA, metal, pH and temperature of the Km measurement not told in main text; helicase domain (Walker A) site. The class given is biochemical, Myotis lucifugus.

`Nc1ncnc2c1ncn2[C@@H]1O[C@H](COP(=O)(O)OP(=O)(O)OP(=O)(O)O)[C@@H](O)[C@H]1O` [ATP]: the “colorimetric ATPase assay (pyrophosphate release as printed)” value on Helraiser transposase was “Mutation of the Walker A motif K1068 abolished ATP hydrolysis”.

B1: Helraiser transposase (Myotis lucifugus) (protein)
chain: MSKEQLLIQRSSAAERCRRYRQKMSAEQRASDLERRRRLQQNVSEEQLLEKRRSEAEKQRRHRQKMSKDQRAFEVERRRWRRQNMSREQSSTSTTNTGRNCLLSKNGVHEDAILEHSCGGMTVRCEFCLSLNFSDEKPSDGKFTRCCSKGKVCPNDIHFPDYPAYLKRLMTNEDSDSKNFMENIRSINSSFAFASMGANIASPSGYGPYCFRIHGQVYHRTGTLHPSDGVSRKFAQLYILDTAEATSKRLAMPENQGCSERLMININNLMHEINELTKSYKMLHEVEKEAQSEAAAKGIAPTEVTMAIKYDRNSDPGRYNSPRVTEVAVIFRNEDGEPPFERDLLIHCKPDPNNPNATKMKQISILFPTLDAMTYPILFPHGEKGWGTDIALRLRDNSVIDNNTRQNVRTRVTQMQYYGFHLSVRDTFNPILNAGKLTQQFIVDSYSKMEANRINFIKANQSKLRVEKYSGLMDYLKSRSENDNVPIGKMIILPSSFEGSPRNMQQRYQDAMAIVTKYGKPDLFITMTCNPKWADITNNLQRWQKVENRPDLVARVFNIKLNALLNDICKFHLFGKVIAKIHVIEFQKRGLPHAHILLILDSESKLRSEDDIDRIVKAEIPDEDQCPRLFQIVKSNMVHGPCGIQNPNSPCMENGKCSKGYPKEFQNATIGNIDGYPKYKRRSGSTMSIGNKVVDNTWIVPYNPYLCLKYNCHINVEVCASIKSVKYLFKYIYKGHDCANIQISEKNIINHDEVQDFIDSRYVSAPEAVWRLFAMRMHDQSHAITRLAIHLPNDQNLYFHTDDFAEVLDRAKRHNSTLMAWFLLNREDSDARNYYYWEIPQHYVFNNSLWTKRRKGGNKVLGRLFTVSFREPERYYLRLLLLHVKGAISFEDLRTVGGVTYDTFHEAAKHRGLLLDDTIWKDTIDDAIILNMPKQLRQLFAYICVFGCPSAADKLWDENKSHFIEDFCWKLHRREGACVNCEMHALNEIQEVFTLHGMKCSHFKLPDYPLLMNANTCDQLYEQQQAEVLINSLNDEQLAAFQTITSAIEDQTVHPKCFFLDGPGGSGKTYLYKVLTHYIRGRGGTVLPTASTGIAANLLLGGRTFHSQYKLPIPLNETSISRLDIKSEVAKTIKKAQLLIIDECTMASSHAINAIDRLLREIMNLNVAFGGKVLLLGGDFRQCLSIVPHAMRSAIVQTSLKYCNVWGCFRKLSLKTNMRSEDSAYSEWLVKLGDGKLDSSFHLGMDIIEIPHEMICNGSIIEATFGNSISIDNIKNISKRAILCPKNEHVQKLNEEILDILDGDFHTYLSDDSIDSTDDAEKENFPIEFLNSITPSGMPCHKLKLKVGAIIMLLRNLNSKWGLCNGTRFIIKRLRPNIIEAEVLTGSAEGEVVLIPRIDLSPSDTGLPFKLIRRQFPVMPAFAMTINKSQGQTLDRVGIFLPEPVFAHGQLYVAFSRVRRACDVKVKVVNTSSQGKLVKHSESVFTLNVVYREILE
notes: full-length synthesized consensus transposase, 1,496 aa (N-terminal domain, Rep HUH nuclease, SF1 helicase); baculovirus expression, purified
The Km is the concentration of substrate that gives half-maximal velocity. One may read the kcat as the maximal rate divided by the concentration of active sites. On to B1, for which, in data set [1], the Km stood at 46 ± 3.3 µM and the kcat stood at 6.8 ± 0.11 s⁻¹.
